Consider two molecules from patent US20250011471A1 (published 2025).

This assay deals with KLB + bFKB1. The assay is described as follows: SPR; preformed bFKB1/KLB complex.

B1: FGFR1b (receptor)
chain: RPSPTLPEQAQPWGAPVEVESFLVHPGDLLQLRCRLRDDVQSINWLRDGVQLAESNRTRITGEEVEVQDSVPADSGLYACVTSSPSGSDTTYFSVNVSDALPSSEDDDDDDDSSSEEKETDNTKPNRMPVAPYWTSPEKMEKKLHAVPAAKTVKFKCPSSGTPNPTLRWLKNGKEFKPDHRIGGYKVRYATWSIIMDSVVPSDKGNYTCIVENEYGSINHTYQLDVVERSPHRPILQAGLPANKTVALGSNVEFMCKVYSDPQPHIQWLKHIEVNGSKIGPDNLPYVQILKTAGVNTTDKEMEVLHLRNVSFEDAGEYTCLAGNSIGLSHHSAWLTVLEALEERPAVMTSPLYLE
As for B1, the dissociation rate constant (koff) stood at 0.0402 s⁻¹.

B2: FGFR1c (receptor)
chain: RPSPTLPEQAQPWGAPVEVESFLVHPGDLLQLRCRLRDDVQSINWLRDGVQLAESNRTRITGEEVEVQDSVPADSGLYACVTSSPSGSDTTYFSVNVSDALPSSEDDDDDDDSSSEEKETDNTKPNPVAPYWTSPEKMEKKLHAVPAAKTVKFKCPSSGTPNPTLRWLKNGKEFKPDHRIGGYKVRYATWSIIMDSVVPSDKGNYTCIVENEYGSINHTYQLDVVERSPHRPILQAGLPANKTVALGSNVEFMCKVYSDPQPHIQWLKHIEVNGSKIGPDNLPYVQILKTAGVNTTDKEMEVLHLRNVSFEDAGEYTCLAGNSIGLSHHSAWLTVLEALEERPAVMTSPLYLE
Regarding B2, the koff turned out to be 0.00291 s⁻¹.
